These are literature values, as cited in patent publication US12180485B2, “Repressible control of gene expression” (TRUSTEES OF BOSTON UNIVERSITY, priority 2020, dated 2024).

One series has as its target NS3a-genotype 1b (Hepatitis C virus genotype 1b, UniProt P26663, A1092G/F1173S/K1113A/P1112Q). The following applies: disrupted by NS3a-targeting drugs; read-out: affinity of basal complex with NS3a-genotype 1b; cited from earlier work.
For series [1] the following is noted: read-out: affinity (Kd); cited from earlier work.
In a further series the target is apo NS3a (Hepatitis C virus genotype 1a, UniProt P27958, T1100M/T1173A). The following applies: cited from earlier work.
Another series has as its target NS3a/danoprevir complex (Hepatitis C virus genotype 1a, UniProt P27958, T1100M/T1173A). To be noted: cited from earlier work.
Series [2] has as its system luciferase and endogenous transcripts. To be noted: cited from earlier work.

As to GELDELVYLLDGPGYDPIHSD [ANR], the Kd on NS3a-genotype 1b was 10 nM.

B1: aCaffVHH: VHH camelid antibody that specifically binds to caffeine, SEQ ID NO: 1980 (protein)
VHH: EVQLQASGGGLVQAGGSLRLSCTASGRTGTIYSMAWFRQAPGKEREFLATVGWSSGITYYMDSVKGRFTISRDNAKNSAYLQMNSLKPEDTAVYYCTATRAYSVGYDYWGQGTQVTVSH
In the case of B1, the Kd in series [1] is 500 nM.

B2: DNCR2: danoprevir/NS3 complex reader, SEQ ID NO: 163 (protein)
chain: SSDEEEARELIERAKEAAERAQEAAERTGDPRVRELARELKRLAQEAAEEVKRDPSSSDVNEALKLIVEAIEAAVDALEAAERTGDPEVRELARELVRLAVEAAEEVQRNPSSSDVNEALHSIVYAIEAAIFALEAAERTGDPEVRELARELVRLAVEAAEEVQRNPSSRNVEHALMRIVLAIYLAEENLREAEESGDPEKREKARERVREAVERAEEVQRDPSGWLNH
With B2, the “binding to apo NS3a” value with apo NS3a is reported as “no detectable binding”. In addition, in the series with NS3a/danoprevir complex, the “selectivity over NS3a bound to the drugs grazoprevir or asunaprevir” value is listed as > 20,000 fold. Besides, the “binding to free danoprevir” value with NS3a/danoprevir complex (free danoprevir, no NS3a) is on record as “does not bind substantially”. The Kd with NS3a/danoprevir complex (read-out: affinity for the NS3a/danoprevir complex) is 0.036 nM.

B3: LwaCas13b: Leptotrichia wadei Cas13a, SEQ ID NO: 2 (protein, listed as Leptotrichia wadei)
chain: MKVTKVDGISHKKYIEEGKLVKSTSEENRTSERLSELLSIRLDIYIKNPDNASEEENRIRRENLKKFFSNKVLHLKDSVLYLKNRKEKNAVQDKNYSEEDISEYDLKNKNSFSVLKKILLNEDVNSEELEIFRKDVEAKLNKINSLKYSFEENKANYQKINENNVEKVGGKSKRNIIYDYYRESAKRNDYINNVQEAFDKLYKKEDIEKLFFLIENSKKHEKYKIREYYHKIIGRKNDKENFAKIIYEEIQNVNNIKELIEKIPDMSELKKSQVFYKYYLDKEELNDKNIKYAFCHFVEIEMSQLLKNYVYKRLSNISNDKIKRIFEYQNLKKLIENKLLNKLDTYVRNCGKYNYYLQVGEIATSDFIARNRQNEAFLRNIIGVSSVAYFSLRNILETENENGITGRMRGKTVKNNKGEEKYVSGEVDKIYNENKQNEVKENLKMFYSYDFNMDNKNEIEDFFANIDEAISSIRHGIVHFNLELEGKDIFAFKNIAPSEISKKMFQNEINEKKLKLKIFKQLNSANVFNYYEKDVIIKYLKNTKFNFVNKNIPFVPSFTKLYNKIEDLRNTLKFFWSVPKDKEEKDAQIYLLKNIYYGEFLNKFVKNSKVFFKITNEVIKINKQRNQKTGHYKYQKFENIEKTVPVEYLAIIQSREMINNQDKEEKNTYIDFIQQIFLKGFIDYLNKNNLKYIESNNNNDNNDIFSKIKIKKDNKEKYDKILKNYEKHNRNKEIPHEINEFVREIKLGKILKYTENLNMFYLILKLLNHKELTNLKGSLEKYQSANKEETFSDELELINLLNLDNNRVTEDFELEANEIGKFLDFNENKIKDRKELKKFDTNKIYFDGENIIKHRAFYNIKKYGMLNLLEKIADKAKYKISLKELKEYSNKKNEIEKNYTMQQNLHRKYARPKKDEKFNDEDYKEYEKAIGNIQKYTHLKNKVEFNELNLLQGLLLKILHRLVGYTSIWERDLRFRLKGEFPENHYIEEIFNFDNSKNVKYKSGQIVEKYINFYKELYKDNVEKRSIYSDKKVKKLKQEKKDLYIRNYIAHFNYIPHAEISLLEVLENLRKLLSYDRKLKNAIMKSIVDILKEYGFVATFKIGADKKIEIQTLESEKIVHLKNLKKKKLMTDRNSEELCELVKVMFEYKALE
Consider B3, for which the knockdown efficiency in series [2] was 50%.
